Test results published in article doi:10.1101/2024.10.15.618347.

Target: YTHDC1 YTH domain (UniProt Q96MU7 345-509)
Test: EMSA

## AACUUAAUGUUUUUGCAUUGGACUUUGAGUU (ssRNA, m6A at position 22 (GGACU to GG(m6A)CU)) [MALAT1 oligo, m6A]
  binding result: binds
